Data reported in the supplement of paper PMC7125110.
± gives the standard error. For some of these results: This sample holds only a part of the variants without activity.

B1: glmS ribozyme (parent)
chain: AUAAAAGCGCCAGAACUACAGAAAUGUAGUUGACGAGGAGGAGGUUUAUCGAAUUUUCGGCGGAUGCCUCCAAA

How the values were obtained:
Details in all cases: with glucosamine-6-phosphate
glucosamine-6-phosphate [1] = variants of: B1; assay: kcat; higher = faster cleavage; RNA array
Outline: (§1)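 kcat and KM were obtained from weighted Michaelis–Menten fits across concentrations of kobs values. Those came from one- or two-exponential decay fits to per-tile medians normalised to baseline and to non-cleaving reference variants. The variants were barcoded ribozymes transcribed in situ by E. coli RNA polymerase on sequenced MiSeq chips and tracked through a hybridised Cy3 probe at 37 °C, with 40 μM to 10 mM glucosamine-6-phosphate in HEPES/KCl/Mg(OAc)2 buffer flowed in.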

glucosamine-6-phosphate [2] = variants of: B1; assay: self-cleavage kobs at 40 uM GlcN6P; higher = faster cleavage; RNA array
Outline: as §1

glucosamine-6-phosphate [3] = variants of: B1; assay: self-cleavage kobs at 2500 uM GlcN6P; higher = faster cleavage; RNA array
Outline: as §1

glucosamine-6-phosphate [4] = variants of: B1; assay: self-cleavage kobs at 10000 uM GlcN6P; higher = faster cleavage; RNA array
Outline: as §1

glucosamine-6-phosphate [5] = variants of: B1; assay: KM; higher = weaker cofactor use; RNA array
Outline: as §1

glucosamine-6-phosphate [6] = variants of: B1; assay: self-cleavage kobs at 640 uM GlcN6P; higher = faster cleavage; RNA array
Outline: as §1

glucosamine-6-phosphate [7] = variants of: B1; assay: self-cleavage kobs at 160 uM GlcN6P; higher = faster cleavage; RNA array
Outline: as §1

AUAAAAGCGCCAGAACUACAGAAAUGUAGUUGACGAGGAGGAGGUUUAUCGAAUUUCCGGCGGAUGGCUCCAAA [U57C C67G] was tested, and the kcat (glucosamine-6-phosphate [1]) was 2.59e-05 ± 3.7e-06 s⁻¹, the “self-cleavage kobs at 40 uM GlcN6P” value (glucosamine-6-phosphate [2]) was under 1e-05 s⁻¹ and the “self-cleavage kobs at 2500 uM GlcN6P” value (glucosamine-6-phosphate [3]) was 3.12e-05 ± 1.1e-05 s⁻¹. For the same variant, the “self-cleavage kobs at 10000 uM GlcN6P” value (glucosamine-6-phosphate [4]) was 2.21e-05 ± 8.5e-06 s⁻¹.

With AUAAAAGCGCCCGAACUACAGAAAUGUAGCUGACGAGGAGGAGGUUUAUCGAAUUUUCGGCGGAUGCCUCUAAA [A12C U30C C71U] the kcat (glucosamine-6-phosphate [1]) was 0.00195 ± 0.00038 s⁻¹, the KM (glucosamine-6-phosphate [5]) was 3.54 ± 1.2 mM and the “self-cleavage kobs at 40 uM GlcN6P” value (glucosamine-6-phosphate [2]) was 3.06e-05 ± 1.5e-05 s⁻¹. For the same variant, the “self-cleavage kobs at 640 uM GlcN6P” value (glucosamine-6-phosphate [6]) was 0.000258 ± 8.1e-05 s⁻¹, the “self-cleavage kobs at 2500 uM GlcN6P” value (glucosamine-6-phosphate [3]) was 0.000922 ± 0.00025 s⁻¹ and the “self-cleavage kobs at 10000 uM GlcN6P” value (glucosamine-6-phosphate [4]) was 0.00141 ± 0.00029 s⁻¹.

AUAAAAGCGCCAGGACUACAGAAAUGUAUUUGACGAGGAGGAGGUUGAUCGAAUUUUCGGCGGAUGCCUGCAAA [A14G G29U U47G C70G] was tested, and the kcat (glucosamine-6-phosphate [1]) was 8.6e-05 ± 1.6e-05 s⁻¹, the “self-cleavage kobs at 640 uM GlcN6P” value (glucosamine-6-phosphate [6]) was 0.000119 ± 3.1e-05 s⁻¹ and the “self-cleavage kobs at 2500 uM GlcN6P” value (glucosamine-6-phosphate [3]) was 6.72e-05 ± 1.5e-05 s⁻¹. The “self-cleavage kobs at 10000 uM GlcN6P” value (glucosamine-6-phosphate [4]) was 0.000118 ± 2.8e-05 s⁻¹.

In the case of AUAAAAGCGCCAGAACUACAGAAAUGUAGCUGACGAGGAGGGGGUUUAUCGAAUUUUCGGCGGAUGCCUCCAAA [U30C A42G], the kcat (glucosamine-6-phosphate [1]) is reported as 0.000456 ± 7.6e-05 s⁻¹, the KM (glucosamine-6-phosphate [5]) is reported as 1.31 ± 0.52 mM and the “self-cleavage kobs at 160 uM GlcN6P” value (glucosamine-6-phosphate [7]) is reported as 7.93e-05 ± 2.8e-05 s⁻¹. The “self-cleavage kobs at 640 uM GlcN6P” value (glucosamine-6-phosphate [6]) was 0.00012 ± 3.3e-05 s⁻¹, the “self-cleavage kobs at 2500 uM GlcN6P” value (glucosamine-6-phosphate [3]) was 0.000368 ± 9.6e-05 s⁻¹ and the “self-cleavage kobs at 10000 uM GlcN6P” value (glucosamine-6-phosphate [4]) was 0.0004 ± 5.9e-05 s⁻¹.

AUAAAAGCGCCAGAACUACAGAAAUGUAGUUGACGAGGUGGAGGUUAAUCGAAUUUUCGGCGGAUGCCUCCAAA [A39U U47A] was tested, and the kcat (glucosamine-6-phosphate [1]) was 0.0219 ± 0.0045 s⁻¹, the KM (glucosamine-6-phosphate [5]) was 3.32 ± 0.9 mM and the “self-cleavage kobs at 40 uM GlcN6P” value (glucosamine-6-phosphate [2]) was 0.000309 ± 3.8e-05 s⁻¹. For the same variant, the “self-cleavage kobs at 160 uM GlcN6P” value (glucosamine-6-phosphate [7]) was 0.000791 ± 0.00013 s⁻¹, the “self-cleavage kobs at 640 uM GlcN6P” value (glucosamine-6-phosphate [6]) was 0.00397 ± 0.00055 s⁻¹ and the “self-cleavage kobs at 2500 uM GlcN6P” value (glucosamine-6-phosphate [3]) was 0.00871 ± 0.0017 s⁻¹. The “self-cleavage kobs at 10000 uM GlcN6P” value (glucosamine-6-phosphate [4]) was 0.0166 ± 0.002 s⁻¹.

In the case of AUAAAAGCGCCGGAACUACAGAAAUGUAGUUGACGAGGAGGAGGUUUAUCGAAUUUUCGGCGGAUUCCUCCAAA [A12G G66U], the kcat (glucosamine-6-phosphate [1]) is reported as 0.000245 ± 7.9e-05 s⁻¹, the “self-cleavage kobs at 2500 uM GlcN6P” value (glucosamine-6-phosphate [3]) is reported as 3.43e-05 ± 7.2e-06 s⁻¹ and the “self-cleavage kobs at 10000 uM GlcN6P” value (glucosamine-6-phosphate [4]) is reported as 9.94e-05 ± 9.7e-06 s⁻¹.

In the case of AUAAAAGCGCCAGAACUACAGAAAUGUAGUUGACGAGGAGAGGGUUUAUCGAAUUUUCGGCGGAUGCCUCCAAA [G41A A42G], the kcat (glucosamine-6-phosphate [1]) is reported as 0.000223 ± 4.2e-05 s⁻¹, the “self-cleavage kobs at 640 uM GlcN6P” value (glucosamine-6-phosphate [6]) is reported as 8.45e-05 ± 1.3e-05 s⁻¹ and the “self-cleavage kobs at 2500 uM GlcN6P” value (glucosamine-6-phosphate [3]) is reported as 0.000296 ± 4.3e-05 s⁻¹. For the same variant, the “self-cleavage kobs at 10000 uM GlcN6P” value (glucosamine-6-phosphate [4]) was 0.000192 ± 1.8e-05 s⁻¹.

For AUAAAAGCGCCAAAACUACAGAAAUGUAGUUGACGAGGAGGAGGUUUAUCGAAUUUUCGGCGGAUGCCUCUAAA [G13A C71U], the kcat (glucosamine-6-phosphate [1]) was 0.00103 ± 0.00012 s⁻¹, the KM (glucosamine-6-phosphate [5]) was 4.73 ± 0.92 mM and the “self-cleavage kobs at 160 uM GlcN6P” value (glucosamine-6-phosphate [7]) was 2.52e-05 ± 8.2e-06 s⁻¹. For the same variant, the “self-cleavage kobs at 640 uM GlcN6P” value (glucosamine-6-phosphate [6]) was 0.000138 ± 2e-05 s⁻¹, the “self-cleavage kobs at 2500 uM GlcN6P” value (glucosamine-6-phosphate [3]) was 0.000358 ± 5.1e-05 s⁻¹ and the “self-cleavage kobs at 10000 uM GlcN6P” value (glucosamine-6-phosphate [4]) was 0.000698 ± 5.9e-05 s⁻¹.
